# Experimental data: PMC11418112
# Like-named read-outs stand apart in the source and are kept apart here.
# T1: RsbV-P (phosphorylated RsbV) (B. subtilis) (UniProt P17903)
# T1 sequence (chain, phosphoserine at 56 (32P)): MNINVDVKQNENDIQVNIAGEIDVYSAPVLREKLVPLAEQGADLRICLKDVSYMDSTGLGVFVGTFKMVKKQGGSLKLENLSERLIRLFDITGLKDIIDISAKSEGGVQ
# T2: SpoIIAA-P (phosphorylated SpoIIAA) (B. subtilis) (UniProt P10727)
# T2 sequence (chain, phosphoserine at 58 (32P in the labelled tracer)): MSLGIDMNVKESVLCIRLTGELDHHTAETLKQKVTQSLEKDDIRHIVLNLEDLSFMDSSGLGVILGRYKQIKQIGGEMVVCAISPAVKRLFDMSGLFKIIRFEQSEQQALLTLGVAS
# T3: SpoIIAA^R67T, phosphorylated (B. subtilis) (UniProt P10727)
# T3 sequence (chain, phosphoserine at 58): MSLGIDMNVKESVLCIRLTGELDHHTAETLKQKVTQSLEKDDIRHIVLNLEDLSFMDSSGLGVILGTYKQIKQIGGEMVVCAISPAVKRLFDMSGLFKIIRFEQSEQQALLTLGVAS
# What was measured:
# [1] = target: T1, RsbV-P (phosphorylated RsbV) (B. subtilis)
# [2] = target: T2, SpoIIAA-P (phosphorylated SpoIIAA) (B. subtilis)
# [3] = target: T2, SpoIIAA-P (phosphorylated SpoIIAA) (B. subtilis); remark: listed apart in the source
# [4] = target: T3, SpoIIAA^R67T, phosphorylated (B. subtilis)
# [5] = target: T2, SpoIIAA-P (phosphorylated SpoIIAA) (B. subtilis); remark: listed apart in the source
# [6] = target: T2, SpoIIAA-P (phosphorylated SpoIIAA) (B. subtilis); remark: listed apart in the source
# [7] = target: T3, SpoIIAA^R67T, phosphorylated (B. subtilis); remark: listed apart in the source
# [8] = target: T1, RsbV-P (phosphorylated RsbV) (B. subtilis); remark: listed apart in the source
# [9] = target: T1, RsbV-P (phosphorylated RsbV) (B. subtilis); remark: listed apart in the source
# [10] = target: T2, SpoIIAA-P (phosphorylated SpoIIAA) (B. subtilis); remark: listed apart in the source
"KM for RsbV-P (single turnover, varying SpoIIE, 10 mM MnCl2, Michaelis-Menten fit) [1]","kcat of RsbV-P dephosphorylation (single turnover, 10 mM MnCl2, Michaelis-Menten fit) [1]","kcat/KM of RsbV-P dephosphorylation (single turnover, 0.15 μM RsbV-P, 10 mM MnCl2) [1]","KM for SpoIIAA-P as printed in the legend of Figure 4B (multiple turnover, 10 mM MgCl2) [2]","kobs of SpoIIAA-P dephosphorylation over time (0.1 μM SpoIIE, 0.5 μM SpoIIAA-P, 10 mM MnCl2) [3]","kobs of SpoIIAA^R67T dephosphorylation over time (0.1 μM SpoIIE, 10 mM MnCl2) [4]","KM for SpoIIAA-P (multiple turnover, 10 mM MgCl2, Michaelis-Menten fit) [5]","kcat of SpoIIAA-P dephosphorylation (multiple turnover, 10 mM MgCl2, Michaelis-Menten fit) [5]","kcat/KM of SpoIIAA-P dephosphorylation (multiple turnover, 0.1 μM SpoIIE, 10 mM MgCl2) [5]","fold decrease in rate of dephosphorylation of SpoIIAA-P, against SpoIIE (Fig. S6) [6]","fold decrease in rate of dephosphorylation of SpoIIAA^R67T, against SpoIIE (Fig. S6) [7]","kcat/KM of RsbV-P dephosphorylation, fold change against SpoIIE (Fig. 4C) [8]","kcat of SpoIIAA-P dephosphorylation (multiple turnover, 10 mM MgCl2, Michaelis-Menten fit) [2]","kcat/KM of SpoIIAA-P dephosphorylation (multiple turnover, 0.1 μM SpoIIE, 10 mM MgCl2) [2]","KM for RsbV-P (single turnover, varying SpoIIE, 10 mM MnCl2, Michaelis-Menten fit) [9]","kcat of RsbV-P dephosphorylation (single turnover, 10 mM MnCl2, Michaelis-Menten fit) [9]","fold decrease in activity toward SpoIIAA-P with manganese as the metal cofactor, against SpoIIE (Fig. S5) [10]",Binder
12.8 µM,0.0086 min^–1,0.00045 μM^–1 min^–1,0.39 µM,0.98 min^–1,0.056 min^–1,28.7 µM,0.39 min^–1,0.011 μM^–1 min^–1,–,–,–,–,–,–,–,–,SpoIIE phosphatase domain (SpoIIE^590-827) (domain or fragment) SYRVSTGAAHAAKGGGLVSGDSYSMMELGARKYAAAISDGMGNGARAHFESNETIKLLEKILESGIDEKIAIKTINSILSLRTTDEIYSTLDLSIIDLQDASCKFLKVGSTPSFIKRGDQVMKVQASNLPIGIINEFDVEVVSEQLKAGDLLIMMSDGIFEGPKHVENHDLWMKRKMKGLKTNDPQEIADLLMEEVIRTRSGQIEDDMTVVVVRIDHNTPKWASIPVPAIFQNKQEIS
47.6 µM,0.018 min^–1,0.00028 μM^–1 min^–1,–,–,–,29.1 µM,0.036 min^–1,0.001 μM^–1 min^–1,2 fold,2 fold,–,–,–,–,–,–,"SpoIIE^I723S (phosphatase domain, SpoIIE^590-827) (domain or fragment) SYRVSTGAAHAAKGGGLVSGDSYSMMELGARKYAAAISDGMGNGARAHFESNETIKLLEKILESGIDEKIAIKTINSILSLRTTDEIYSTLDLSIIDLQDASCKFLKVGSTPSFIKRGDQVMKVQASNLPIGISNEFDVEVVSEQLKAGDLLIMMSDGIFEGPKHVENHDLWMKRKMKGLKTNDPQEIADLLMEEVIRTRSGQIEDDMTVVVVRIDHNTPKWASIPVPAIFQNKQEIS"
79.3 µM,0.15 min^–1,0.0035 μM^–1 min^–1,–,–,–,38.6 µM,0.15 min^–1,0.0039 μM^–1 min^–1,–,–,–,–,–,–,–,–,"SpoIIE^P752R (phosphatase domain, SpoIIE^590-827) (domain or fragment) SYRVSTGAAHAAKGGGLVSGDSYSMMELGARKYAAAISDGMGNGARAHFESNETIKLLEKILESGIDEKIAIKTINSILSLRTTDEIYSTLDLSIIDLQDASCKFLKVGSTPSFIKRGDQVMKVQASNLPIGIINEFDVEVVSEQLKAGDLLIMMSDGIFEGRKHVENHDLWMKRKMKGLKTNDPQEIADLLMEEVIRTRSGQIEDDMTVVVVRIDHNTPKWASIPVPAIFQNKQEIS"
–,–,–,–,–,–,–,–,–,–,–,5 fold,0.011 min^–1,0.00011 μM^–1 min^–1,29.1 µM,0.043 min^–1,–,"SpoIIE^3X (triple mutation of E675S, I723S, and P752R; phosphatase domain) (domain or fragment) SYRVSTGAAHAAKGGGLVSGDSYSMMELGARKYAAAISDGMGNGARAHFESNETIKLLEKILESGIDEKIAIKTINSILSLRTTDSIYSTLDLSIIDLQDASCKFLKVGSTPSFIKRGDQVMKVQASNLPIGISNEFDVEVVSEQLKAGDLLIMMSDGIFEGRKHVENHDLWMKRKMKGLKTNDPQEIADLLMEEVIRTRSGQIEDDMTVVVVRIDHNTPKWASIPVPAIFQNKQEIS"
95.7 µM,0.063 min^–1,0.00058 μM^–1 min^–1,–,0.23 min^–1,0.086 min^–1,18.3 µM,0.02 min^–1,0.001 μM^–1 min^–1,–,–,–,–,–,–,–,2 fold,"SpoIIE^E675S (phosphatase domain, SpoIIE^590-827) (domain or fragment) SYRVSTGAAHAAKGGGLVSGDSYSMMELGARKYAAAISDGMGNGARAHFESNETIKLLEKILESGIDEKIAIKTINSILSLRTTDSIYSTLDLSIIDLQDASCKFLKVGSTPSFIKRGDQVMKVQASNLPIGIINEFDVEVVSEQLKAGDLLIMMSDGIFEGPKHVENHDLWMKRKMKGLKTNDPQEIADLLMEEVIRTRSGQIEDDMTVVVVRIDHNTPKWASIPVPAIFQNKQEIS"
